Data reported in article PMC9178793, “A Direct Assay for Measuring the Activity and Inhibition of Coactivator-Associated Arginine Methyltransferase 1” (Biochemistry, 2022).

Key:
[1] = substrate: CSCC[C@H](NC(=O)[C@@H](NC(=O)[C@H](CO)NC(=O)[C@H](Cc1ccccc1)NC(=O)[C@@H]1CCCN1C(=O)[C@@H]1CCCN1C(=O)[C@H](CCCNC(=N)N)NC(=O)[C@@H]1CCCN1C(=O)[C@H](C)NC(=O)[C@H](C)NC(=O)[C@@H]1CCCN1C(C)=O)[C@@H](C)O)C(N)=O; assay: kinetic analysis of CARM1 substrates (KM determination, MRM LC-MS enzymatic activity assay); format: biochemical, Mus musculus; conditions: other: fixed 100 μM AdoMet, PABP1 456–466 0.05–100 μM
Source text: (§1) The Mus musculus CARM1 (mmCARM1) gene sequence corresponding to the PRMT core (residues 130–497, mmCARM1_130–497) were amplified by PCR from the original GST-CARM1 construct.[19] The sequences were cloned in the pDONR207 (Invitrogen) vector using a BP reaction (Gateway Cloning, Life Technologies). The positive clones were confirmed by sequencing (GATC). The sequences were subcloned in a pDEST20 vector using an LR reaction. The resulting recombinant protein is harboring an amino-terminal glutathione S-transferase (GST) tag followed by a Tobacco etch virus (TEV) protease cleavage site. DH10Bac competent cells containing the baculovirus genome were transformed with the pDEST20-CARM1 plasmids and plated onto LB agar media containing 15 mg·mL^–1 tetracycline, 7 mg·mL^–1 gentamicin, 50 mg·mL^–1 kanamycin, 25 mg·mL^–1 X-Gal, and 40 mg·mL^–1 IPTG. Bacmid DNA purified from recombination-positive white colonies was transfected into Sf9 cells using the Lipofectin reagent (Invitrogen). Viruses were harvested 10 days after transfection. […]
(§2) Enzyme activity assays were performed with CARM1 (286 nM corresponding to 11.68 ng/μL) in 20 mM Tris buffer (pH 8) containing 50 mM Tris NaCl, 1 mM EDTA, 3 mM MgCl2, 0.1 mg/mL BSA, and 1 mM dithiothreitol (DTT). […] The supernatant (60 μL) was transferred to a new 96-well plate and analyzed. […]

[2] = substrate: C[S+](CC[C@H](N)C(=O)[O-])C[C@H]1O[C@@H](n2cnc3c(N)ncnc32)[C@H](O)[C@@H]1O; assay: as above; format: biochemical, Mus musculus; conditions: other: fixed 100 μM PABP1, AdoMet 0.05–100 μM
Source text: as §1, §2

B1: CARM1 (Mus musculus) (protein)
chain: GHTLERSVFSERTEESSAVQYFQFYGYLSQQQNMMQDYVRTGTYQRAILQNHTDFKDKIVLDVGCGSGILSFFAAQAGARKIYAVEASTMAQHAEVLVKSNNLTDRIVVIPGKVEEVSLPEQVDIIISEPMGYMLFNERMLESYLHAKKYLKPSGNMFPTIGDVHLAPFTDEQLYMEQFTKANFWYQPSFHGVDLSALRGAAVDEYFRQPVVDTFDIRILMAKSVKYTVNFLEAKEGDLHRIEIPFKFHMLHSGLVHGLAFWFDVAFIGSIMTVWLSTAPTEPLTHWYQVRCLFQSPLFAKAGDTLSGTCLLIANKRQSYDISIVAQVDQTGSKSSNLLDLKNPFFRYTGTTPSPPPGSHYTSPSENM
notes: corresponding to the PRMT core (residues 130–497, mmCARM1_130–497) were amplified by PCR; GST (followed by TEV protease cleavage site) (N, cleaved yes); made in house; host or cells: Sf9 insect cells (baculovirus)
What does the source list for B1?
Km [1]: 12.03 ± 2.28 µM; Km [2]: 5.46 ± 0.01 µM
